We go through 23 molecules from patent US20220177587A1, “METHODS AND USES OF VARIANT CD80 FUSION PROTEINS AND RELATED CONSTRUCTS” (Alpine Immune Sciences, Inc., priority 2018, published 2022).

The chains are these.
B1: variant CD80 IgV-Fc V22A/E23D/Q33L/E35D/M47V (Fc fusion)
chain: VIHVTKEVKEVATLSCGHNVSADELAQTRIYWLKDKKMVLTMMSGDVNIWPEYKNRTIFDITNNLSIVILALRPSDEGTYECVVLKYEKDAFKREHLAEVTLSVKAD
B2: variant CD80 IgV-Fc Q33L/E35D/T41S/M43I (Fc fusion)
chain: B1 chain with A22V, D23E, T41S, M43I, V47M
B3: variant CD80 IgV-Fc A26E/Q33L/E35D/M47L/L85Q (Fc fusion)
chain: B1 chain with A22V, D23E, A26E, V47L, L85Q
B4: variant CD80 IgV-Fc H18Y/Q33L/E35D/M47I (Fc fusion)
chain: B1 chain with H18Y, A22V, D23E, V47I
B5: variant CD80 IgV-Fc Q33L/E35D/M47I/T62N/L85Q (Fc fusion)
chain: B1 chain with A22V, D23E, V47I, T62N, L85Q
B6: variant CD80 IgV-Fc Q33L/E35D/T41S/M47V (Fc fusion)
chain: B1 chain with A22V, D23E, T41S
B7: variant CD80 IgV-Fc Q33K/E35D/D46V/L85Q (Fc fusion)
chain: B1 chain with A22V, D23E, L33K, D46V, V47M, L85Q
B8: variant CD80 IgV-Fc A26E/Q33L/E35D/M47L (Fc fusion)
chain: B1 chain with A22V, D23E, A26E, V47L
B9: variant CD80 IgV-Fc E7D/E35D/M47I/L97Q (Fc fusion)
chain: B1 chain with E7D, A22V, D23E, L33Q, V47I, L97Q
B10: variant CD80 IgV-Fc H18Y/A26E/Q33L/E35D/M47L/L85Q (Fc fusion)
chain: B1 chain with H18Y, A22V, D23E, A26E, V47L, L85Q
B11: variant CD80 IgV-Fc Q33L/E35D/M47V/L85Q (Fc fusion)
chain: B1 chain with A22V, D23E, L85Q
B12: variant CD80 IgV-Fc A26E/E35D/M43T/M47L/L85Q/R94Q (Fc fusion)
chain: B1 chain with A22V, D23E, A26E, L33Q, M43T, V47L, L85Q, R94Q
B13: variant CD80 IgV-Fc A26E/Q33R/E35D/M47L/L85Q/K86E (Fc fusion)
chain: B1 chain with A22V, D23E, A26E, L33R, V47L, L85Q, K86E
B14: variant CD80 IgV-Fc Y31S/E35D/M47L/T79L/E88G (Fc fusion)
chain: B1 chain with A22V, D23E, Y31S, L33Q, V47L, T79L, E88G
B15: variant CD80 IgV-Fc Q33L/E35D/M47I/L85Q (Fc fusion)
chain: B1 chain with A22V, D23E, V47I, L85Q
B16: variant CD80 IgV-Fc A26E/Q33R/E35D/M47L/L85Q (Fc fusion)
chain: B1 chain with A22V, D23E, A26E, L33R, V47L, L85Q
B17: variant CD80 IgV-Fc H18Y/E35D/M47L (Fc fusion)
chain: B1 chain with H18Y, A22V, D23E, L33Q, V47L
B18: variant CD80 IgV-Fc Q33L/E35D/M47I (Fc fusion)
chain: B1 chain with A22V, D23E, V47I
B19: variant CD80 IgV-Fc V22L/Q27H/E35D/M47I/A71G (Fc fusion)
chain: B1 chain with A22L, D23E, Q27H, L33Q, V47I, A71G
B20: variant CD80 IgV-Fc V22A/E35D/V68E/A71D (Fc fusion)
chain: B1 chain with D23E, L33Q, V47M, V68E, A71D
B21: variant CD80 IgV-Fc E35D/M47V/A71G/E88D (Fc fusion)
chain: B1 chain with A22V, D23E, L33Q, A71G, E88D
B22: variant CD80 IgV-Fc H18Y/A26E/E35D/M47L/L85Q/D90G (Fc fusion)
chain: B1 chain with H18Y, A22V, D23E, A26E, L33Q, V47L, L85Q, D90G
B23: variant CD80 IgV-Fc Q33K/E35D/M47V/K89E/K93R (Fc fusion)
chain: B1 chain with A22V, D23E, L33K, K89E, K93R

Where a chain is given by its changes, count along the chain named. Names may count otherwise.

In one experiment the target is human CTLA-4 (human) (UniProt P16410). The experiment can be described thus: flow cytometry, CHO cells expressing huCTLA4; MFI ratio to WT CD80 ECD-Fc (R&D). A general note: In flow cytometry, cells or beads pass a laser one at a time.
human CTLA-4 (human), sequence (P16410 36-223): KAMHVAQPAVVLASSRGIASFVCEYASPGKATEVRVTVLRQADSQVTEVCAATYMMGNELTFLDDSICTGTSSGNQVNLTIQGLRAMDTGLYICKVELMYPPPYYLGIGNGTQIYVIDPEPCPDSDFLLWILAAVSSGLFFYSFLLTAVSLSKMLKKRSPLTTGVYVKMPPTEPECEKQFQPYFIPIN
As for B1, the Fold change to WT CD80 came out at 0.02 fold.
Same read-out and setting: in the case of B2 it was 0.04 fold; in that of B3, 0.01 fold.
On the same count and under the same terms, in the case of B4 it was 0.03 fold.
For B5, the Fold change to WT CD80 is 0.01 fold.
Still for that read-out and setting: for B6 the value was 0.08 fold.
On the same count and under the same terms, in the case of B7 it was 0.05 fold.
Same read-out and setting: in the case of B8 it was 0.01 fold.
As to B9, the Fold change to WT CD80 amounted to 1.52 fold.
On the same count and under the same terms, in the case of B10 it was 0.01 fold.
B11: the Fold change to WT CD80 stood at 0.42 fold.
On the same count and under the same terms, for B12 the value was 1.56 fold; for B13, 0.01 fold; for B14, 0.01 fold.
Same read-out and setting: in the case of B15 it was 0.11 fold; in that of B16, 0.01 fold; in that of B17, 1.59 fold.
Take B18: the Fold change to WT CD80 was 0.09 fold.

The next experiment concerns the target human PD-L1 (human) (UniProt Q9NZQ7). Nature of the experiment: flow cytometry, CHO cells expressing huPD-L1; MFI ratio to WT CD80 ECD-Fc (R&D).
Take B1: the Fold change to WT was found to be 9.51 fold.
On the same count and under the same terms, for B2 the value was 5.66 fold; for B3, 7.89 fold.
Still for that read-out and setting: for B4 the value was 6.02 fold; for B5, 9.14 fold; for B6, 5.52 fold.
On the same count and under the same terms, in the case of B7 it was 3.36 fold; in that of B8, 7.67 fold; in that of B9, 1.84 fold.
In the case of B10, the Fold change to WT was 9.64 fold.
On to B11, for which the Fold change to WT turned out to be 5.97 fold.
For B12, the Fold change to WT was found to be 8.57 fold.
Turning to B13, the Fold change to WT came to 9.56 fold.
Still for that read-out and setting: for B14 the value was 4.9 fold.
On the same count and under the same terms, for B15 the value was 8.05 fold.
The same measure, in the same setting: for B16 the value was 10.3 fold.
Take B17: the Fold change to WT stood at 5.56 fold.
Same read-out and setting: for B18 the value was 4.7 fold.

Another experiment has the same target. The experiment can be described thus: flow cytometry; binding to PD-L1 cells against binding of the same variant to CD28 cells.
B1: the Ratio of PDL1:CD28 was 275.
Still for that read-out and setting: in the case of B2 it was 104; in that of B3, 229.
The same measure, in the same setting: in the case of B4 it was 162; in that of B5, 256.
Same read-out and setting: in the case of B6 it was 153; in that of B7, 104; in that of B8, 225.
On to B9, for which the Ratio of PDL1:CD28 turned out to be 54.
On the same count and under the same terms, in the case of B10 it was 282.
Still for that read-out and setting: for B11 the value was 177; for B12, 262.
B13: the Ratio of PDL1:CD28 amounted to 276.
Still for that read-out and setting: for B14 the value was 140; for B15, 222.
Same read-out and setting: for B16 the value was 309.
On the same count and under the same terms, in the case of B17 it was 9.
As for B18, the Ratio of PDL1:CD28 was determined as 132.

Another experiment deals with human CTLA-4 (human) (UniProt P16410). The experiment can be described thus: flow cytometry, CHO cells expressing huCTLA4.
In the case of B19, the MFI at 33.3 nM was 152000 MFI.
Same read-out and setting: in the case of B1 it was 3640 MFI; in that of B2, 6390 MFI; in that of B3, 1170 MFI.
On the same count and under the same terms, for B4 the value was 5540 MFI.
Same read-out and setting: for B5 the value was 1660 MFI; for B6, 14500 MFI; for B7, 8510 MFI.
Turning to B8, the MFI at 33.3 nM is 1320 MFI.
On the same count and under the same terms, for B20 the value was 437000 MFI; for B9, 271000 MFI.
Same read-out and setting: in the case of B10 it was 2090 MFI.
As to B11, the MFI at 33.3 nM stood at 75400 MFI.
Same read-out and setting: for B12 the value was 278000 MFI; for B13, 1280 MFI; for B14, 1100 MFI.
Still for that read-out and setting: in the case of B15 it was 20500 MFI.
Same read-out and setting: for B16 the value was 1280 MFI.
B17 showed an MFI at 33.3 nM of 284000 MFI.
Same read-out and setting: for B21 the value was 212000 MFI; for B18, 15900 MFI.
The same measure, in the same setting: for B22 the value was 231000 MFI.

The target of the next experiment is human PD-L1 (human) (UniProt Q9NZQ7). Nature of the experiment: flow cytometry, CHO cells expressing huPD-L1.
human PD-L1 (human), sequence (Q9NZQ7 19-290): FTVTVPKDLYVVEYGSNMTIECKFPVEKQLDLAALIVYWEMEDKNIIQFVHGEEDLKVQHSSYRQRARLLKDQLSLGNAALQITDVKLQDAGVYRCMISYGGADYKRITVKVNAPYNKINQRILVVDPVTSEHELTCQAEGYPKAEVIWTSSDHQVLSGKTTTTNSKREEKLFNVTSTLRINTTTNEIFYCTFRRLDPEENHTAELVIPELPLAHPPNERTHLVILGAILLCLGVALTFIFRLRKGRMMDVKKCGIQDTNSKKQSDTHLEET
B19 gave an MFI at 33.3 nM of 43800 MFI.
Still for that read-out and setting: in the case of B1 it was 75500 MFI.
On the same count and under the same terms, for B2 the value was 44900 MFI; for B3, 62700 MFI; for B4, 47800 MFI.
Still for that read-out and setting: for B5 the value was 72600 MFI; for B6, 43800 MFI; for B7, 26700 MFI.
Take B8: the MFI at 33.3 nM came out at 60900 MFI.
Same read-out and setting: in the case of B20 it was 1350 MFI; in that of B9, 14600 MFI; in that of B10, 76600 MFI.
B11 had an MFI at 33.3 nM of 47400 MFI.
On the same count and under the same terms, in the case of B12 it was 68100 MFI.
The same measure, in the same setting: in the case of B13 it was 76000 MFI.
In turn, B14 came in with an MFI at 33.3 nM of 38900 MFI.
The same measure, in the same setting: in the case of B15 it was 63900 MFI.
Same read-out and setting: for B16 the value was 81500 MFI; for B17, 44200 MFI; for B21, 37100 MFI.
On the same count and under the same terms, in the case of B18 it was 37400 MFI; in that of B23, 39100 MFI; in that of B22, 52400 MFI.

Another experiment has as its target CD28 (human) (UniProt P10747). Nature of the experiment: flow cytometry, Jurkat/IL2 reporter cells (endogenous CD28).
Molecule B1 returned an MFI at 33.3 nM of 274 MFI.
On the same count and under the same terms, in the case of B2 it was 433 MFI; in that of B3, 274 MFI.
On to B4, for which the MFI at 33.3 nM worked out at 295 MFI.
Take B5: the MFI at 33.3 nM is 284 MFI.
B6 showed an MFI at 33.3 nM of 287 MFI.
In the case of B7, the MFI at 33.3 nM worked out at 257 MFI.
On the same count and under the same terms, in the case of B8 it was 271 MFI; in that of B20, 14000 MFI; in that of B9, 273 MFI.
On the same count and under the same terms, for B10 the value was 272 MFI; for B11, 268 MFI; for B12, 260 MFI.
On the same count and under the same terms, in the case of B13 it was 275 MFI; in that of B14, 278 MFI; in that of B15, 287 MFI.
With B16, the MFI at 33.3 nM was 264 MFI.
On the same count and under the same terms, for B17 the value was 5070 MFI.
On the same count and under the same terms, for B18 the value was 282 MFI; for B23, 276 MFI.

For another experiment, the target named is CD28 (human) (UniProt P10747). Nature of the experiment: flow cytometry, Jurkat/IL2 reporter cells (endogenous CD28); MFI ratio to WT CD80 ECD-Fc (R&D).
As for B1, the Fold change to WT turned out to be 0.04 fold.
Same read-out and setting: in the case of B2 it was 0.06 fold.
Still for that read-out and setting: for B3 the value was 0.04 fold.
Still for that read-out and setting: for B4 the value was 0.04 fold.
As to B5, the Fold change to WT came out at 0.04 fold.
Consider B6, for which the Fold change to WT was 0.04 fold.
In the case of B7, the Fold change to WT was determined as 0.03 fold.
Still for that read-out and setting: for B8 the value was 0.04 fold; for B9, 0.04 fold.
On the same count and under the same terms, in the case of B10 it was 0.04 fold.
Same read-out and setting: for B11 the value was 0.04 fold; for B12, 0.03 fold; for B13, 0.04 fold.
B14: the Fold change to WT came out at 0.04 fold.
For the molecule B15, the Fold change to WT stood at 0.04 fold.
Same read-out and setting: for B16 the value was 0.03 fold; for B17, 0.66 fold; for B18, 0.04 fold.

Another experiment deals with CD28 (human) (UniProt P10747). Nature of the experiment: flow cytometry, Jurkat/IL2 reporter cells (CD28).
As for B19, the MFI at 33.3 nM came out at 7270 MFI.
The same measure, in the same setting: for B21 the value was 6240 MFI; for B22, 3540 MFI.
